Source: the supplement of paper PMC9170038

Tested on: MS2 coat protein
Test: apparent KD of MS2 coat protein; designed switch direction (-1 OFF switch, 1 ON switch): 1; higher = weaker reporter binding
Method in brief: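 Designed RNA switches with common flanks were transcribed on Illumina chips by stalled E. coli RNA polymerase and titrated with SNAP-549-labelled MS2 coat protein, from 0.7 or 1.5 nM doubling to 3 µM, in Tris-HCl pH 7.5 buffer with KCl, MgCl2, BSA, DTT, tRNA and Tween-20. Steps lasted 0.8–1.5 h (lowest) to 10–20 min (highest). Titrations ran without input, with 200 uM small-molecule ligand, or with an oligonucleotide input. Normalised cluster fluorescence was curve-fitted, and apparent KD is the per-design median over clusters.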

[1] = input ligand: microRNA oligo, concentration not stated
[2] = Eterna round: R95, input ligand: FMN 200 uM
[3] = Eterna round: R95, input ligand: microRNA oligo, concentration not stated
[4] = Eterna round: R95, input ligand: none

Sequence: GUAGCAUACCGAGGAUAUUCAUAUUAAAUACAUGAGGAUCACCCAUGUUAGGCCAAAAGGCCUUGGGAGAAGGCGGAAUGCUAC [Xeonanis - 20 Mod2] (Eterna round: R96, puzzle: Same State NG 2)
- apparent KD of MS2 coat protein (input ligand: FMN 200 uM): 20.9 nM
- apparent KD of MS2 coat protein [1]: 33.6 nM
- apparent KD of MS2 coat protein (input ligand: none): 63.5 nM

Sequence: GUAGAACAUGAGGAUCACCCAUGUGAAGACGCAUGAGGAUAUAUACGUAAAUAGCAUACGAUAGAAGGCAUGAUAA [JR_SS001_Sub1703] (Eterna round: R96, puzzle: Same State 1)
- apparent KD of MS2 coat protein [1]: 40.6 nM

Sequence: GUAGCAUACCGAGGAUAUUCAUACAUGAGGAUCACCCAUGUUUAGGCCAGCAUUAGCUGGCCUUGGGAGAAGGCGGAAUGCUAC [Xeonanis - 20 Mod54] (Eterna round: R96, puzzle: Same State NG 2)
- apparent KD of MS2 coat protein (input ligand: FMN 200 uM): 17.7 nM
- apparent KD of MS2 coat protein [1]: 13.5 nM
- apparent KD of MS2 coat protein (input ligand: none): 22.6 nM

Sequence: GUGGCCUAGGCACAGGAUAUGUUUCUCGUAACAUGAGGAUCACCCAUGUGCCUUUGAGAUUUUAUGCAGAAGGGUGCACGCCACG [JL Atiinbe mod 04] (puzzle: Same State 2)
- apparent KD of MS2 coat protein [2]: 20.6 nM
- apparent KD of MS2 coat protein [3]: 273 nM
- apparent KD of MS2 coat protein [4]: 491 nM

Sequence: GUACUCAUGUAAGGAUAUGCAGCCGUUUCGGCUGCAGAAGGUACUAUAAUACAUGAGGAUCACCCAUGUCUCUAUAAUUUAGUG [salish99_SSNG1_r04_901] (Eterna round: R96, puzzle: Same State NG 1)
- apparent KD of MS2 coat protein (input ligand: FMN 200 uM): 70.6 nM
- apparent KD of MS2 coat protein [1]: 34.5 nM
- apparent KD of MS2 coat protein (input ligand: none): 49 nM

Sequence: CUAUCUACAGGUGUCAGUGCUCGUCUUAUACAUGAGGAUCACCCAUGUUAUAGCCCGGUGCUUGCGCUGGGCUGAUU [JL ViennaUCT Tearor mod 4] (puzzle: Sensor for hsa-mir-208a)
- apparent KD of MS2 coat protein [2]: 54.8 nM
- apparent KD of MS2 coat protein [3]: 14.2 nM
- apparent KD of MS2 coat protein [4]: 66.9 nM

Sequence: CGACGCACGGCAGGAUAUCGAUUCCAAAGGAAUCGAGAAGGGCCUCAUGUCGUGGAAACGUGACAUGAGGAUCACCCAUGUUGC [Omei SS(NG)1 Cv19] (Eterna round: R96, puzzle: Same State NG 1)
- apparent KD of MS2 coat protein (input ligand: FMN 200 uM): 115 nM
- apparent KD of MS2 coat protein [1]: 9.29 nM
- apparent KD of MS2 coat protein (input ligand: none): 27.9 nM

Sequence: GUCAGCGAUUGAGGAUAUCACGUCGUUUAGACGUGAGAAGGCGAUCAUAACAUGAGGAUCACCCAUGUAUUACAUGAAGCUGAC [SSNG1/5-A3] (Eterna round: R96, puzzle: Same State NG 1)
- apparent KD of MS2 coat protein (input ligand: FMN 200 uM): 17.2 nM
- apparent KD of MS2 coat protein [1]: 20.1 nM
- apparent KD of MS2 coat protein (input ligand: none): 32.6 nM

Sequence: AGUGAACAUGAGGAUCACCCAUGUGAGAGGGAUGUAGGAUAUGUAAGGAAGUAAGAUGGAACAGAAGGACAAAGUG [JR_SS!_Sub067] (puzzle: Same State 1)
- apparent KD of MS2 coat protein [2]: 38.6 nM
- apparent KD of MS2 coat protein [3]: 46.1 nM
- apparent KD of MS2 coat protein [4]: 50.4 nM

Sequence: CAGCGCUGUUGAGAGGAUAUGCGGUGAUGGACAUGAGGAUCACCCAUGUUAGCGACAGCAUUACGGUAGAAGGCUCCACAGCUGC [Soteed Omei mod 14] (puzzle: Same State 2)
- apparent KD of MS2 coat protein [3]: 17.9 nM

Sequence: CUGAGCAGUCAAGGAUAUCACGUCGAUUAGACGUGAGAAGGUGACCAAUACAUGAGGAUCACCCAUGUAAUACAUGAAGCUCAG [SSNG1/12-A2] (Eterna round: R96, puzzle: Same State NG 1)
- apparent KD of MS2 coat protein (input ligand: FMN 200 uM): 20.4 nM
- apparent KD of MS2 coat protein [1]: 28.5 nM
- apparent KD of MS2 coat protein (input ligand: none): 39.5 nM

Sequence: GGUAGGUUACUACCAAACUACAUGAGGAUCACCCAUGUGUGGGAGGAUAUGGUACCUAUUUGGUACCAGAAGGUCCAAUUAAUU [Fiskers NG3ss - 6] (Eterna round: R96, puzzle: Same State NG 3)
- apparent KD of MS2 coat protein (input ligand: FMN 200 uM): 108 nM
- apparent KD of MS2 coat protein [1]: 106 nM
- apparent KD of MS2 coat protein (input ligand: none): 124 nM

Sequence: GCCAUCGCAUGAGGAUAUGGCACCGUUUCGGUGCCAGAAGGCAUGUCAAAUGACAUGAGGAUCACCCAUGUAGUUAAGAUGGCA [JL Fiskers NG1ss - 33 mod 9] (Eterna round: R96, puzzle: Same State NG 1)
- apparent KD of MS2 coat protein (input ligand: FMN 200 uM): 29.2 nM
- apparent KD of MS2 coat protein [1]: 417 nM
- apparent KD of MS2 coat protein (input ligand: none): 542 nM

Sequence: GCUCGAUGAUAGGCCUACAUGAGGAUCACCCAUGUGACUGGGCAGGAUAUCUAAAUGCAGAAUGUAGAGAAGGGCCCGUCGAGC [SameState NG3 #52] (Eterna round: R96, puzzle: Same State NG 3)
- apparent KD of MS2 coat protein (input ligand: FMN 200 uM): 269 nM
- apparent KD of MS2 coat protein [1]: 69.5 nM
- apparent KD of MS2 coat protein (input ligand: none): 409 nM

Sequence: ACUUACAUGGUAGGAUAUGUCCGUCUAGCUGACACAGAAGGGCCAAGCUCUACGACAUGAGGAUCACCCAUGUGAAGGAGAGGC [Eternabot solution 49] (Eterna round: R96, puzzle: Same State NG 1)
- apparent KD of MS2 coat protein (input ligand: FMN 200 uM): 15.1 nM
- apparent KD of MS2 coat protein [1]: 13.6 nM
- apparent KD of MS2 coat protein (input ligand: none): 18.3 nM

Sequence: GCAUGGUUACAUGCUAUACAUGAGGAUCACCCAUGUGAUGGGAAGGAUAUGUCCUCAAUUAGUGGACAGAAGGUCCAAACAUUU [Fiskers NG3ss - 1] (Eterna round: R96, puzzle: Same State NG 3)
- apparent KD of MS2 coat protein (input ligand: FMN 200 uM): 136 nM
- apparent KD of MS2 coat protein [1]: 234 nM
- apparent KD of MS2 coat protein (input ligand: none): 939 nM

Sequence: CUCACAUGGGUAGGAUAUCUAGGAUAUGGGAAAGACUAAGUCUGUAGGUCACCUAACCCAGAUGGAGAGAAGGACCCAACACUC [pwkr ssNG2 2FMN + F9.37] (Eterna round: R96, puzzle: Same State NG 2)
- apparent KD of MS2 coat protein (input ligand: FMN 200 uM): 32.4 nM
- apparent KD of MS2 coat protein [1]: 7.81 nM
- apparent KD of MS2 coat protein (input ligand: none): 9.82 nM

Sequence: GGUAGGUUACUACCAAACAUGAGGAUCACCCAUGUUAAUGGGAAGGAUAUGGUACCUAUUUGGUACCAGAAGGUCCAAAUAAUU [Mat - Same State NG 3 - JL Mod - D97] (Eterna round: R96, puzzle: Same State NG 3)
- apparent KD of MS2 coat protein (input ligand: FMN 200 uM): 73.2 nM
- apparent KD of MS2 coat protein [1]: 261 nM
- apparent KD of MS2 coat protein (input ligand: none): 596 nM

Sequence: AUGCAGCUACCACAGGAUAUACGUGGAUCGACAUGAGGAUCACCCAUGUAUAUCCUAAUAAUUGCGUAGAAGGGUGGUCAGCUGC [Tezaqutete] (puzzle: Same State 2)
- apparent KD of MS2 coat protein [3]: 696 nM

Sequence: AGGUUCCUGCUAGGAUAUCUAGGAUAUGGACGAGGAUUACCCGAGCAGGAUUACCGCACCAGAGGAGAGAAGGAGCAACAAGAG [pwkr ssNG2 2F5 2FMN.14] (Eterna round: R96, puzzle: Same State NG 2)
- apparent KD of MS2 coat protein (input ligand: FMN 200 uM): 1740 nM
- apparent KD of MS2 coat protein [1]: 370 nM
- apparent KD of MS2 coat protein (input ligand: none): 160 nM

Sequence: GAGUGACGAUUAGGAUAUACAGUGAUAAUGAUAGUAGAAGGAAUUGACAUGAGGAUCACCCAUGUAGGACUAAUCCAGAGAGAG [Parity 29 - Jieux - Same State NG 1] (Eterna round: R96, puzzle: Same State NG 1)
- apparent KD of MS2 coat protein (input ligand: FMN 200 uM): 86.5 nM
- apparent KD of MS2 coat protein [1]: 39.9 nM
- apparent KD of MS2 coat protein (input ligand: none): 57.8 nM

Sequence: GUAGCAUACCGAGGAUAUUCAUAUUACAUGAGGAUCACCCAUGUGGCCAGCAUUAGCUGGCCUUGGGAGAAGGCGGAAUGCUAC [Xeonanis - 20 Mod49] (Eterna round: R96, puzzle: Same State NG 2)
- apparent KD of MS2 coat protein (input ligand: FMN 200 uM): 110 nM
- apparent KD of MS2 coat protein [1]: 623 nM
- apparent KD of MS2 coat protein (input ligand: none): 1150 nM

Sequence: AAUUAAGAUCGAGGAUAUCACGUCGAUUAGACGUGAGAAGGCGAUCAUAACAUGAGGAUCACCCAUGUAUUACAUGAAUUAAUU [SSNG1/4-B2] (Eterna round: R96, puzzle: Same State NG 1)
- apparent KD of MS2 coat protein (input ligand: FMN 200 uM): 33.4 nM
- apparent KD of MS2 coat protein [1]: 26.7 nM
- apparent KD of MS2 coat protein (input ligand: none): 36.6 nM
